Source: article PMC5673658, “Single-Molecule Fluorescence Methods to Study Plant Hormone Signal Transduction Pathways” (Frontiers in Plant Science, 2017)
Values belong to the molecule of their own block, whether it stands above or below them.

Experiments:
[1] = biological target: phosphorylated BES1 (pBES1), BES1 with a His-tag phosphorylated by BIN2 (UniProt Q9LN63); test: CoSMoS (colocalization single-molecule spectroscopy, TIRFM); His-tagged pBES1 immobilised on the slide; binding percentage of 14-3-3κ with pBES1 before and after incubation for 1 h with pBKI1C at >1,000 times the concentration of pBES1
Sequence of phosphorylated BES1 (pBES1), BES1 with a His-tag phosphorylated by BIN2 (Q9LN63 whole entry): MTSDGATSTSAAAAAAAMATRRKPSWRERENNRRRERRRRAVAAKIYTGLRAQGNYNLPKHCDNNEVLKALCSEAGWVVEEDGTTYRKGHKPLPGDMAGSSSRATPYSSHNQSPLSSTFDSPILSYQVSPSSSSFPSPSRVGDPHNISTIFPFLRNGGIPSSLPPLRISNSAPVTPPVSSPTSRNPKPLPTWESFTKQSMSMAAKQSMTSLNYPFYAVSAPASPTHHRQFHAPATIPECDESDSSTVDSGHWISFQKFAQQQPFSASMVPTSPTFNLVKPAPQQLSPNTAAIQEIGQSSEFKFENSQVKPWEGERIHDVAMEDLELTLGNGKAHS

[2] = biological target: 14-3-3κ as used in the CoSMoS competition experiment (UniProt P48348); test: as above
[3] = biological target: the molecule itself; test: single-molecule TIRF microscopy, stepwise photobleaching; His-tagged BES1 phosphorylated by BIN2 (30 min, 37°C) immobilised on the slide; 14-3-3κ/C103S-alexa555 added; bleaching steps counted in 188 trajectories; labeling efficiency 34.7%

binding percentage of 14-3-3κ with pBES1 before pBKI1C [1]: 18%
Molecule: 14-3-3κ as used in the CoSMoS competition experiment (from UniProt P48348 1-248)

binding percentage of 14-3-3κ with pBES1 left after pBKI1C (>1,000 times the concentration of pBES1, 1 h) [2]: 9%
Molecule: phosphorylated BKI1 C terminal (pBKI1C), BKI1C phosphorylated by JKC (domain or fragment)

B1: alexa555-labeled 14-3-3κ/C103S (natural protein, UniProt P48348 1-248, looked up)
chain: MATTLSRDQYVYMAKLAEQAERYEEMVQFMEQLVSGATPAGELTVEERNLLSVAYKNVIGSLRAAWRIVSSIEQKEESRKNEEHVSLVKDYRSKVETELSSISSGILRLLDSHLIPSATASESKVFYLKMKGDYHRYLAEFKSGDERKTAAEDTMIAYKAAQDVAVADLAPTHPIRLGLALNFSVFYYEILNSSEKACSMAKQAFEEAIAELDTLGEESYKDSTLIMQLLRDNLTLWTSDMQEQMDEA
modifications: alexa555 (maleimide derivative) on a cysteine, site not given; labeling efficiency 34.7%
notes: 14-3-3κ (14-3-3 kappa), a plant 14-3-3 protein of the brassinosteroid signaling pathway; printed molecular weight 29073.70 D; also called 14-3-3κ/C103S-alexa555; 14-3-3κ-alexa555; source: E. coli BL21 (DE3)-plysS, purified (amylose and gel filtration columns)
stoichiometry N [3]: 2
